The target in test [1] is T1, human SLAMF7 (human, UniProt Q9NQ25 23-335).
T1 construct: whole, on cells; Cell surface antigen targeted on human MM cell lines in flow cytometry; also called CS-1
Description: flow cytometry on MM cell lines U-266, NCI-H929, RPMI-8226; DVD-IgG1 at 20 nM, Alexa Fluor 647 anti-human Fc; curve assigned by grey tone only. As to the method: (§1) Flow cytometry: In a V-bottom 96-well plate (Corning), 100,000 cells per well were dispensed. The cells were washed with 200 μL flow cytometry buffer (PBS, 2% (v/v) FBS, 0.01% (w/v) NaN₃, pH 7.4), incubated with DVD-IgG1 or IgG1 (50 μL of a 20 nM solution in PBS) for 30 min on ice, washed with 200 μL ice-cold flow cytometry buffer, and stained with Alexa Fluor 647 conjugated polyclonal (Fab′)₂ donkey anti-human Fc (Jackson ImmunoResearch Laboratories) for 20 min on ice. After washing twice with 200 μL ice-cold flow cytometry buffer, the cells were analyzed using a Canto II Flow Cytometer (Becton-Dickinson). Data were analyzed using FlowJo software (Tree Star).

For test [2], the target named is T2, human CD138 (human, UniProt P18827 23-310).
T2 construct: whole, on cells; Cell surface antigen targeted on human MM cell lines in flow cytometry
T2 sequence (looked up): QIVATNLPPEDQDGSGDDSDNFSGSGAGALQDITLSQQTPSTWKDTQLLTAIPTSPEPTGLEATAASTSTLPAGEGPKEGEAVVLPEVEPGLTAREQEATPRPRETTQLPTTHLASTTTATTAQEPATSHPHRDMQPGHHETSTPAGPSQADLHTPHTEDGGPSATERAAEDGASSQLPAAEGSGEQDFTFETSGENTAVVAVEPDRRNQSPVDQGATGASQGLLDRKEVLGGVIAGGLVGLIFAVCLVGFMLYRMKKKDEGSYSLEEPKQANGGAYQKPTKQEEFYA
Description: flow cytometry on MM cell lines U-266, NCI-H929, RPMI-8226; DVD-IgG1 at 20 nM, Alexa Fluor 647 anti-human Fc. As to the method:
as §1

Test [3] has as its target T3, human B-cell maturation antigen (BCMA) (human, UniProt Q02223 1-184).
T3 construct: whole, on cells; Cell surface antigen targeted on human MM cell lines in flow cytometry
T3 sequence (looked up): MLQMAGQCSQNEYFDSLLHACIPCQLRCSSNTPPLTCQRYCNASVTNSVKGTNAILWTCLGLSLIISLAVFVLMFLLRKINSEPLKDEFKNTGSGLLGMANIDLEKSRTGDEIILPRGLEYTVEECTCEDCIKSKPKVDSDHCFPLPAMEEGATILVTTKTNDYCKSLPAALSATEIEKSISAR
Description: flow cytometry on cells; cell line and concentration not printed on the sheet (methods paragraph 609). As to the method:
Flow cytometry: During the process of flow cytometry, 100,000 cells were dispensed in each well of a V-bottom 96-well plate (Corning) and washed with 150 μL of flow cytometry buffer (PBS, 2% (v/v) FBS, 0.01% (w/v) NaN₃, pH 7.4). Subsequently, the cells were incubated with the antibodies (200 nM in 50 μL PBS) for 1 h on ice, followed by 3 rounds of washing (200 μL flow buffer). Finally, the cells were stained with R-Phycoerythrin AffiniPure F(ab′)₂ Fragment Goat Anti-Human IgG, F(ab′)₂ fragment specific (for Fabs and IgG1 or IgG1 ARCs), or R-Phycoerythrin AffiniPure F(ab′)₂ Fragment Donkey Anti-Human IgM, Fc5μ fragment specific (IgM or IgM ARCs) purchased from Jackson ImmunoResearch Laboratories for 30 min on ice. After 3 rounds of washing, the cells were passed through a BD FACSCanto™ II and the data were extracted and analyzed via FlowJo software.

For test [4], the target named is T1, human SLAMF7. Description: flow cytometry on MM cell lines U-266, NCI-H929, RPMI-8226; negative control. As to the method:
as §1

The target in test [5] is T2, human CD138. The test is described as above. As to the method:
as §1

B1: Anti-SLAMF7 DVD-IgG1 (1) (antibody)
light: DIQMTQSPSSLSASVGDRVTITCKASQDVGIAVAWYQQKPGKVPKLLIYWASTRHTGVPDRFSGSGSGTDFTLTISSLQPEDVATYYCQQYSSYPYTFGQGTKVEIKASTKGPELQMTQSPSSLSASVGDRVTITCRSSQSLLHTYGSPYLNWYLQKPGQSPKLLIYKVSNRFSGVPSRFSGSGSGTDFTLTISSLQPEDFAVYFCSQGTHLPYTFGGGTKVEIKRTVAAPSVFIFPPSDEQLKSGTASVVCLLNNFYPREAKVQWKVDNALQSGNSQESVTEQDSKDSTYSLSSTLTLSKADYEKHKVYACEVTHQGLSSPVTKSFNRGEC
heavy: not shown
notes: Dual variable domain IgG1: outer anti-SLAMF7 Fv, ASTKGP spacer, inner h38C2 Fv, human IgG1 and kappa constant domains
B1: in test [1], the binding result is “binds”.

B2: Anti-CD138 DVD-IgG1 (3) (antibody)
light: DIQMTQSTSSLSASLGDRVTISCSASQGINNYLNWYQQKPDGTVELLIYYTSTLQSGVPSRFSGSGSGTDYSLTISNLEPEDIGTYYCQQYSKLPRTFGGGTKLEIKASTKGPELQMTQSPSSLSASVGDRVTITCRSSQSLLHTYGSPYLNWYLQKPGQSPKLLIYKVSNRFSGVPSRFSGSGSGTDFTLTISSLQPEDFAVYFCSQGTHLPYTFGGGTKVEIKRTVAAPSVFIFPPSDEQLKSGTASVVCLLNNFYPREAKVQWKVDNALQSGNSQESVTEQDSKDSTYSLSSTLTLSKADYEKHKVYACEVTHQGLSSPVTKSFNRGEC
heavy: not shown
notes: Dual variable domain IgG1: outer anti-CD138 Fv, ASTKGP spacer, inner h38C2 Fv, human IgG1 and kappa constant domains
For the molecule B2, the binding result in test [2] is reported as “binds”.

B3: Anti-BCMA DVD-IgG1 (2) (antibody)
light: DIQMTQSPSSLSASVGDRVTITCSASQDISNYLNWYQQKPGKAPKLLIYYTSNLHSGVPSRFSGSGSGTDFTLTISSLQPEDFATYYCQQYRKLPWTFGQGTKLEIKASTKGPELQMTQSPSSLSASVGDRVTITCRSSQSLLHTYGSPYLNWYLQKPGQSPKLLIYKVSNRFSGVPSRFSGSGSGTDFTLTISSLQPEDFAVYFCSQGTHLPYTFGGGTKVEIKRTVAAPSVFIFPPSDEQLKSGTASVVCLLNNFYPREAKVQWKVDNALQSGNSQESVTEQDSKDSTYSLSSTLTLSKADYEKHKVYACEVTHQGLSSPVTKSFNRGEC
heavy: not shown
notes: Dual variable domain IgG1: outer anti-BCMA Fv, ASTKGP spacer, inner h38C2 Fv, human IgG1 and kappa constant domains
In the case of B3, in test [3], the binding result is “binds”.

B4: h38C2 IgG1 (antibody, V domains shown)
VH: EVQLVESGGGLVQPGGSLRLSCAASGFTFSNYWMSWVRQSPEKGLEWVSEIRLRSDNYATHYAESVKGRFTISRDNSKNTLYLQMNSLRAEDTGIYYCKTYFYSFSYWGQGTLVTVSS
VL: ELQMTQSPSSLSASVGDRVTITCRSSQSLLHTYGSPYLNWYLQKPGQSPKLLIYKVSNRFSGVPSRFSGSGSGTDFTLTISSLQPEDFAVYFCSQGTHLPYTFGGGTKVEIKR
notes: also called humanized 38C2 IgG1
Turning to B4, the binding result in test [4] and in test [5] was “no binding (tested: 20 nM (single concentration))” throughout.
